Assay results: patent US8975044B2, “Polynucleotides encoding for frizzled-binding agents and uses thereof” (OncoMed Pharmaceuticals, Inc., priority 2008, dated 2015)

T1: FZD8 binding to Wnt3A (Homo sapiens, UniProt Q9H461)
T1 construct: amino acids 1-157 of FZD8 linked in-frame to human IgG1 Fc
T1 sequence (Q9H461 28-157): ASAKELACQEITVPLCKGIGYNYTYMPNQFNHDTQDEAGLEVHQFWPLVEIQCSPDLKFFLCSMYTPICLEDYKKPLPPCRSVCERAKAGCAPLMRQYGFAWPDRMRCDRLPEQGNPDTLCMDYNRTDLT

B1: 44R24: anti-FZD5/8 IgG antibody, VH SEQ ID NO:85, VL SEQ ID NO:86; ATCC deposit no. PTA-10311 (antibody, V domains shown)
VH: EVQLVESGGGLVQPGGSLRLSCAASGFTFSSYYITWVRQAPGKGLEWVSTISYSSSNTYYADSVKGRFTISRDNSKNTLYLQMNSLRAEDTAVYYCARSIVFDYWGQGTLVTVSS
VL: DIELTQPPSVSVAPGQTARISCSGDALGNRYVYWYQQKPGQAPVLVIPSGIPERFSGSNSGNTATLTISGTQAEDEADYYCGSWDTRPYPKYVFGGGTKLTVLG
modifications: 44R24 VH; 44R24 VL
notes: ATCC deposit no; PTA-10311
B2: 18R5: human anti-FZD antibody; VH SEQ ID NO:10 (as 18R8), VL SEQ ID NO:14; binds FZD1, 2, 5, 7, 8 (antibody, V domains shown)
VH: EVQLVESGGGLVQPGGSLRLSCAASGFTFSHYTLSWVRQAPGKGLEWVSVISGDGSYTYYADSVKGRFTISSDNSKNTLYLQMNSLRAEDTAVYYCARNFIKYVFANWGQGTLVTVSS
VL: DIELTQPPSVSVAPGQTARISCSGDNIGSFYVHWYQQKPGQAPVLVIYDKSNRPSGIPERFSGSNSGNTATLTISGTQAEDEADYYCQSYANTLSLVFGGGTKLTVLG
modifications: 18R5/18R8 heavy chain variable region (VH); 18R5 light chain variable region (VL)
B3: 18R8: human anti-FZD antibody from phage display; VH SEQ ID NO:10, VL SEQ ID NO:12; binds FZD1, 2, 5, 7, 8 (antibody, V domains shown)
VH: B2 VH
VL: DIELTQPPSVSVAPGQTARISCSGDKLGKKYASWYQQKPGQAPVLVIYEKDNRPSGIPERFSGSNSGNTATLTISGTQAEDEADYYCSSFAGNSLEVFGGGTKLTVLG
modifications: 18R5/18R8 heavy chain variable region (VH); 18R8 light chain variable region (VL)

Experiments:
Axin2 = Axin2 mRNA level in A549 cells by qPCR; assay type: cell-based, human; conditions: 5-0.008 μg/ml, 24 hours, relative to LZ1 control
Description: A549 cells are human lung carcinoma cells in which the Axin2 gene is highly expressed, translating endogenous activity of Wnt signaling. Axin2 is a well know Wnt target gene that responds to activation of the pathway by up-regulating its transcription and eventually down-regulating Wnt signaling through a feed-back loop mechanism. This system was used to test the impact of the anti-Fzd Abs on Axin2 mRNA levels by qPCR.
12-well plates were seeded with 30,000 A549 cells per well and grown for 3 days in DMEM+10% FBS. Antibodies were added at varying concentrations (5 1, 0.2, 0.04, 0.008 μg/ml) for 24 hours and total RNA was extracted from the cells. LZ1, a nonbinding antibody, was used as negative control at only the highest concentration.
30,000 A549 cells were seeded into 12-well plates and grown for 3 days in DMEM+10% FBS. Anti-FZD antibody 18R5 or 44R24 were added at varying concentrations (5, 1, 0.2, 0.04, 0.008 ug/ml), and LZ1, a nonbinding antibody, was used as a negative control at only the highest concentration. RNA was made 24 hours post treatment and then treated with Dnase.
Axin2 is known to be a robust target gene in Wnt signaling and its expression level was examined by doing a Taqman relative expression (ΔΔCT) assay using an Applied Biosystems 7900 HT machine. 50 ng of RNA was used per point in triplicate and a GUSB probe was used for endogenous control. […]

ACTA2 = ACTA2 gene expression in treated OMP-PN4 tumors by microarray; assay type: in vivo, NOD/SCID mice; conditions: 10 mg/kg once a week for 6 weeks; tumor stroma
Description: As described in Example 7 above, OMP-PN4 tumor-bearing NOD/SCID mice were treated with control Ab (LZ-1), 18R5, gemcitabine, or the combination of 18R5 and gemcitabine once a week for 6 weeks. The antibodies were administered at a concentration of 10 mg/kg. After they were harvested, the tumors from that experiment were analyzed for the expression of Wnt target genes at both the RNA and protein levels, using microarray and IHC, respectively.
Total RNA was extracted from the tumors, amplified, and subjected to microarray analysis. Total RNAs were amplified using the Ovation RNA Amplification System V2 (NuGEN, San Carlos, Calif.). Resulting amplified, antisense ss-cDNA was fragmented and biotinylated using the FL-Ovation cDNA Biotin Module V2 (NuGEN) for use on Affymetrix chips. Affymetrix HG-U133 plus 2 or MG 430 2.0 oligonucleotide microarrays were used in these experiments (performed at Almac Diagnostics, Durham, N.C.). […] The quality of the cDNA and the fragmented cDNA were assessed by spectrophotometer and the Bioanalyzer before the array hybridization. The scanned raw chip data were quantified and scaled using the GCOS software package (Affymetrix) and subjected to a comprehensive assessment of Gene Chip Quality Control recommended by Affymetrix to detect any chips defects and outliers, which were excluded from the subsequent data analysis. […]

OMP-PN13 cells = assay: Tumorgenic potential of Muc16-positive cells sorted from 18R5-treated OMP-PN13 tumors; assay type: in vivo, NOD/SCID mice; conditions: 75 cells per mouse, 10 mice; no tumor from Muc16+ cells, 7 of 10 from Muc16− cells
Description: OMP-PN13-bearing mice were treated with 18R5 according to the protocol described in Example 21. Mice were euthanized 12 days after initiation of the Ab treatment. Tumors were harvested and processed to obtain a single cell suspension using collagenase III to digest the tissues. Mouse stromal cells were stained with a biotinylated anti-H-2 Kd antibody and a biotinylated anti-CD45 antibody. They were then incubated with magnetic beads conjugated to streptavidin (Thermo MagnaBind) and depleted using a Dynal magnet. The resulting lin-depleted tumor cells were stained with an anti-Muc16 mAb detected with a PE-conjugated secondary Ab. Muc16− positive and Muc16− negative cells were sorted using an ARIA FACS machine ran by the DIVA software. Cells were re-injected subcutaneously in the left flank of NOD/SCID mice for comparison of their tumorgenic potentials. Each cell type was injected into 10 mice. Each mouse received 75 cells. Representative pictures of tumors resulting from the injection of Muc16− (upper panel) and Muc16+(lower panel) cells are shown in FIG. 52B. No tumor grew after injection of the Muc16+cells, while 7 of the 10 mice injected with the Muc16− cells developed tumors.

FZD8 binding to Wnt3A = target: T1, FZD8 binding to Wnt3A; assay: Blocking of FZD8-Fc binding to Wnt3A (protein A depletion, STF293 reporter readout); assay type: biochemical; conditions: co-incubation with FZD8-Fc and Wnt3A conditioned medium, 2 hrs at 4° C., protein A beads removed
Description: To assess the ability of 18R8 to block the binding of FZD to Wnt, 2 μl of 1.32 μg/μl soluble FZD8-Fc containing the Fri domain (amino acids 1-157 of FZD8 linked in-frame to human IgG1 Fc) was added to culture medium to bind Wnt3A (added as 20 μl of Wnt3A conditioned medium) either alone or in the presence of the 18R8 IgG antibody (added as 4 μl of 3.71 μg/μl). The mixtures were incubated either alone or in the presence of Protein A sepharose beads (GE Healthcare products; 20 μl of 50% solution in PBS) for two hrs at 4° C. After the incubation, the protein A beads (and any proteins complexed to the protein A beads) in each sample were removed by spinning and the supernatant was assayed for ability to induce 8×TCF luciferase activity. The supernatant was added to STF293 cells, which stably express 8×TCF (eight copies of the TCF-binding domain upstream of a firefly luciferase reporter gene) to measure canonical Wnt signaling levels and which were cultured in DMEM supplemented with antibiotics and 10% FCS. Eighteen hours following treatment of the STF293 cells, luciferase levels were measured using a dual luciferase assay kit (Promega; Madison, Wis.).

| Molecule | inhibition of basal level of axin2 gene expression (Axin2) | ACTA2 expression (ACTA2) | tumorgenicity of 18R5-induced Muc16+ cells (OMP-PN13 cells) | blocking of FZD8 binding to Wnt3A (FZD8 binding to Wnt3A) |
| --- | --- | --- | --- | --- |
| B1 | inhibit Axin2 basal levels |  |  |  |
| B2 | inhibit Axin2 basal levels | decreased levels of ACTA2 expression | non-tumorgenic |  |
| B3 |  |  |  | blocked the ability of FZD8 to bind to Wnt3A |
